This test deals with gp41 of HIV-1 IIIB (HIV-1 IIIB) (UniProt P04578).

As to “Enfuvirtide Primary Reference Standard (peptide)”, the IC50 of inhibition of HIV-1 IIIB infection of MT-4 cells (MTT assay of virus-induced cytopathic effect, 5 days post infection) was 0.018 µM.

biosynthesized enfuvirtide (peptide): the IC50 of inhibition of HIV-1 IIIB infection of MT-4 cells (MTT assay of virus-induced cytopathic effect, 5 days post infection) was 0.0453 µM.
